The values below come from publication PMC3790820, “A Rapid and High-Throughput Quantitation Assay of the Nuclear Factor κB Activity Using Fluorescence Correlation Spectroscopy in the Setting of Clinical Laboratories”.

Data set [1] concerns the target T1, NF-kB p50 (hr-p50) (human (recombinant), UniProt P19838 1-433). Description: competition (FCS); little effect at 1 and 50 nM competitor; TAMRA probe N1; 50 mM Tris-HCl pH 7.5, 250 mM NaCl, 1 mM EDTA, 2.5 mM DTT, 10% glycerol, 1 nM TAMRA probe, 1 ug poly(dI-dC), room temperature, 10 min. To be noted: protein: commercial; chain copies: 2; hairpin, 21 bp stem, AAAA loop.

Data set [2] deals with T1, NF-kB p50 (hr-p50). Description: competition (FCS); 868.0 us at 1 nM, 495.8 us at 50 nM competitor; TAMRA probe N1; 50 mM Tris-HCl pH 7.5, 250 mM NaCl, 1 mM EDTA, 2.5 mM DTT, 10% glycerol, 1 nM TAMRA probe, 1 ug poly(dI-dC), room temperature, 10 min. To be noted: protein: commercial; chain copies: 2; hairpin, 22 bp stem, AAAA loop.

T1 sequence (P19838 1-433): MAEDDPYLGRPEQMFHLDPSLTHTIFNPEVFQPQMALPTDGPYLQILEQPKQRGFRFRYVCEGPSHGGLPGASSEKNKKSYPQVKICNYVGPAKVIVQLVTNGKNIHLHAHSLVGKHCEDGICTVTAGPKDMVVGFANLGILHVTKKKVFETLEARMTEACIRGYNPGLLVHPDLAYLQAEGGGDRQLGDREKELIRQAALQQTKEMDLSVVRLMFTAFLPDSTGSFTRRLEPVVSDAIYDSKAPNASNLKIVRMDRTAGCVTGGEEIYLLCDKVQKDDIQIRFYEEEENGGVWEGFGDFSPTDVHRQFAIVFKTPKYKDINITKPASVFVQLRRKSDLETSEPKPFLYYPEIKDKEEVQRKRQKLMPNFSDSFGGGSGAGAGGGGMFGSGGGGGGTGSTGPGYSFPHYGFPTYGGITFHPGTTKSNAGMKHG

CAGGCGCGTTTTGACCATCTTAAAAAAGATGGTCAAAACGCGCCTG (structured_DNA) [nonspecific competitor stem-loop]: in the data set with NF-kB p50 (hr-p50) [1], the binding result is listed as “no binding”.

As to AGTTGAGGGGACTTTCCCAGGCAAAAGCCTGGGAAAGTCCCCTCAACT (structured_DNA) [wild-type competitor stem-loop], the binding result with NF-kB p50 (hr-p50) [2] is “binds”.
